Measurements from the supplement of paper PMC7125110.
± gives the standard error. Variants at the floor of the assay were thinned out.

B1: glmS ribozyme (parent)
chain: AUAAAAGCGCCAGAACUACAGAAAUGUAGUUGACGAGGAGGAGGUUUAUCGAAUUUUCGGCGGAUGCCUCCAAA

Legend:
Conditions in all cases: with glucosamine-6-phosphate
glucosamine-6-phosphate [1] = variants of: B1; test: self-cleavage kobs at 40 uM GlcN6P; higher = faster cleavage; RNA array
Method in brief: (§1)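 Barcoded glmS ribozyme variants on sequenced MiSeq chips were transcribed in situ by E. coli RNA polymerase and tracked through a hybridised Cy3 probe at 37 °C. Glucosamine-6-phosphate (40 μM to 10 mM) in HEPES/KCl/Mg(OAc)2 buffer was flowed in, and tiles were imaged over ~14 h. Signals were normalised to baseline and to non-cleaving reference variants; per-tile medians were fit to one- or two-exponential decays to give kobs. kcat and KM came from weighted Michaelis–Menten fits across concentrations.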

glucosamine-6-phosphate [2] = variants of: B1; test: self-cleavage kobs at 640 uM GlcN6P; higher = faster cleavage; RNA array
Method in brief: as §1

glucosamine-6-phosphate [3] = variants of: B1; test: self-cleavage kobs at 2500 uM GlcN6P; higher = faster cleavage; RNA array
Method in brief: as §1

glucosamine-6-phosphate [4] = variants of: B1; test: self-cleavage kobs at 160 uM GlcN6P; higher = faster cleavage; RNA array
Method in brief: as §1

glucosamine-6-phosphate [5] = variants of: B1; test: self-cleavage kobs at 10000 uM GlcN6P; higher = faster cleavage; RNA array
Method in brief: as §1

| Variant | self-cleavage kobs at 40 uM GlcN6P (glucosamine-6-phosphate [1]) | self-cleavage kobs at 640 uM GlcN6P (glucosamine-6-phosphate [2]) | self-cleavage kobs at 2500 uM GlcN6P (glucosamine-6-phosphate [3]) | self-cleavage kobs at 160 uM GlcN6P (glucosamine-6-phosphate [4]) | self-cleavage kobs at 10000 uM GlcN6P (glucosamine-6-phosphate [5]) |
| --- | --- | --- | --- | --- | --- |
| C34U U55A G60U | < 1e-05 s⁻¹ | < 1e-05 s⁻¹ | – | – | – |
| G32A G40U C67G | < 1e-05 s⁻¹ | < 1e-05 s⁻¹ | < 1e-05 s⁻¹ | – | – |
| A36C G41A | < 1e-05 s⁻¹ | < 1e-05 s⁻¹ | < 1e-05 s⁻¹ | < 1e-05 s⁻¹ | < 1e-05 s⁻¹ |
| G35C C58A G62U | < 1e-05 s⁻¹ | – | – | – | – |
| G37U A52U U57A | < 1e-05 s⁻¹ | – | – | – | – |
| G37U A42G | < 1e-05 s⁻¹ | < 1e-05 s⁻¹ | < 1e-05 s⁻¹ | – | – |
| G37A C68A | < 1e-05 s⁻¹ | < 1e-05 s⁻¹ | < 1e-05 s⁻¹ | < 1e-05 s⁻¹ | < 1e-05 s⁻¹ |
| A39C G40C U47A U56G | < 1e-05 s⁻¹ | – | – | – | – |
| G40A C58G C70U | < 1e-05 s⁻¹ | – | – | – | < 1e-05 s⁻¹ |
| G32C C34U | < 1e-05 s⁻¹ | < 1e-05 s⁻¹ | < 1e-05 s⁻¹ | < 1e-05 s⁻¹ | < 1e-05 s⁻¹ |
| G35A U45A C71A | < 1e-05 s⁻¹ | – | – | – | – |
| G35U G62C | < 1e-05 s⁻¹ | < 1e-05 s⁻¹ | < 1e-05 s⁻¹ | < 1e-05 s⁻¹ | < 1e-05 s⁻¹ |
| G32C G37C A48U G59C | < 1e-05 s⁻¹ | – | – | – | – |
| G32U G41A G66C C68G | < 1e-05 s⁻¹ | – | < 1e-05 s⁻¹ | < 1e-05 s⁻¹ | < 1e-05 s⁻¹ |
| A39G G40C C67U | < 1e-05 s⁻¹ | – | < 1e-05 s⁻¹ | – | < 1e-05 s⁻¹ |
| A39U U55G | 0.000507 ± 7.9e-05 s⁻¹ | 0.00371 ± 0.00061 s⁻¹ | 0.00715 ± 0.0012 s⁻¹ | 0.00122 ± 0.0003 s⁻¹ | 0.0282 ± 0.0058 s⁻¹ |
| A39U G62U | < 1e-05 s⁻¹ | – | – | – | < 1e-05 s⁻¹ |
| C34U G41C G59A A64G | < 1e-05 s⁻¹ | < 1e-05 s⁻¹ | – | < 1e-05 s⁻¹ | – |
| A36C G37A | < 1e-05 s⁻¹ | – | – | – | < 1e-05 s⁻¹ |
| A36G C50G | 3.66e-05 ± 1.5e-05 s⁻¹ | – | – | – | – |
| G32C U45G U65A | < 1e-05 s⁻¹ | < 1e-05 s⁻¹ | – | – | < 1e-05 s⁻¹ |
| A33C C71U | < 1e-05 s⁻¹ | – | – | < 1e-05 s⁻¹ | 4.08e-05 ± 1e-05 s⁻¹ |
| A33U A36C A39C G41C G44A U46G G51U C58U A64U | < 1e-05 s⁻¹ | – | – | – | < 1e-05 s⁻¹ |

| Variant | self-cleavage kobs at 40 uM GlcN6P (glucosamine-6-phosphate [1]) | self-cleavage kobs at 640 uM GlcN6P (glucosamine-6-phosphate [2]) | self-cleavage kobs at 2500 uM GlcN6P (glucosamine-6-phosphate [3]) | self-cleavage kobs at 160 uM GlcN6P (glucosamine-6-phosphate [4]) | self-cleavage kobs at 10000 uM GlcN6P (glucosamine-6-phosphate [5]) |
| --- | --- | --- | --- | --- | --- |
| G38U A42C | < 1e-05 s⁻¹ | – | – | < 1e-05 s⁻¹ | < 1e-05 s⁻¹ |
| C34G U54A | < 1e-05 s⁻¹ | < 1e-05 s⁻¹ | < 1e-05 s⁻¹ | < 1e-05 s⁻¹ | < 1e-05 s⁻¹ |
| G32A G43C | < 1e-05 s⁻¹ | – | < 1e-05 s⁻¹ | < 1e-05 s⁻¹ | – |
| C34G G43C U47A U49C U55G | < 1e-05 s⁻¹ | – | – | – | < 1e-05 s⁻¹ |
| G35C G41U G63U | < 1e-05 s⁻¹ | – | – | – | – |
| G40A G41C G43U | < 1e-05 s⁻¹ | – | – | – | – |
| G37U G41C | < 1e-05 s⁻¹ | < 1e-05 s⁻¹ | < 1e-05 s⁻¹ | < 1e-05 s⁻¹ | – |
| A33U G35U | < 1e-05 s⁻¹ | < 1e-05 s⁻¹ | < 1e-05 s⁻¹ | – | < 1e-05 s⁻¹ |
| G38A G41C G43U | < 1e-05 s⁻¹ | – | – | – | – |
| G35U U45A C50G | < 1e-05 s⁻¹ | – | – | – | – |
| A33U G44C C68U | < 1e-05 s⁻¹ | – | – | – | < 1e-05 s⁻¹ |
| C34U U69G | 0.000246 ± 5.1e-05 s⁻¹ | 0.000467 ± 0.00011 s⁻¹ | 0.00161 ± 0.00069 s⁻¹ | 5.32e-05 ± 2.5e-05 s⁻¹ | 0.000285 ± 4.5e-05 s⁻¹ |
| C34A A42G | < 1e-05 s⁻¹ | < 1e-05 s⁻¹ | < 1e-05 s⁻¹ | < 1e-05 s⁻¹ | – |
| A36G A39U A48U C70G | < 1e-05 s⁻¹ | < 1e-05 s⁻¹ | < 1e-05 s⁻¹ | < 1e-05 s⁻¹ | < 1e-05 s⁻¹ |
| G40A G60A U69A | < 1e-05 s⁻¹ | – | – | – | – |
| G37A A39C G40U | < 1e-05 s⁻¹ | – | – | – | 4.03e-05 ± 1e-05 s⁻¹ |
| G35C A42G U49A G66C | < 1e-05 s⁻¹ | – | < 1e-05 s⁻¹ | – | < 1e-05 s⁻¹ |
| G35U G60A | < 1e-05 s⁻¹ | < 1e-05 s⁻¹ | < 1e-05 s⁻¹ | < 1e-05 s⁻¹ | < 1e-05 s⁻¹ |
| A33G C50A A53C G60C | < 1e-05 s⁻¹ | – | – | – | – |
| G32C A39G G43A | < 1e-05 s⁻¹ | – | – | – | – |
| A39U G43A C67G | 0.000153 ± 4.5e-05 s⁻¹ | 0.000465 ± 0.00019 s⁻¹ | 0.000131 ± 6.2e-05 s⁻¹ | 9.45e-05 ± 3.1e-05 s⁻¹ | 0.00313 ± 0.00085 s⁻¹ |
| C34G A42U | < 1e-05 s⁻¹ | < 1e-05 s⁻¹ | < 1e-05 s⁻¹ | < 1e-05 s⁻¹ | < 1e-05 s⁻¹ |
